The values that follow come from patent US20020110853A1 (IMMUNEX, published 2002).

The target in assay [1] is T1, human TWEAKR-Fc (TWEAKR extracellular domain fused to Fc portion from human IgG1) (human, 125-I labeled in the Scatchard assay).
T1 construct: the assays name only TWEAKR-Fc; also called huTWEAKR-Fc
Briefly: ligand blot of TweakR-Fc (with and without DTT, with and without heating at 100° C.) probed with TWEAK-leucine zipper supernatant and 125I M15 anti-leucine zipper. The method, then: Ligand blots were generated by running either TweakR-Fc or RP-Fc as a control on a standard SDS-PAGE and blotted onto nitrocellulose. The separate samples were prepared by with and without the addition of reducing agent (DTT) and with and without heating at 100° C. to denature the proteins. This blot was probed with TWEAK-leucine zipper conditioned supernatants followed by ¹²⁵I labeled M15 anti-leucine zipper.

The target in assay [2] is T2, human TWEAK receptor (TWEAKR), expressed on transfected COS cells (human, UniProt Q9NP84 28-129).
T2 construct: 129 residue polypeptide cloned from a HUVEC library; Signal peptide 1-27 is predicted
T2 sequence: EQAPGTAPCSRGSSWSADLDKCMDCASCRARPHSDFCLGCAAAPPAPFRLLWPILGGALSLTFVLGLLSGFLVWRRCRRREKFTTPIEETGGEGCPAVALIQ
Briefly: expression cloning by panning with TWEAK coated beads, then slide binding on transfected COS cells. From the text:
To clone TWEAKR cDNA, an expression vector encoding a growth hormone leader, a leucine zipper multimerization domain, and the C-terminal extracellular domain of human TWEAK (see Chicheportiche et al., J. Biol. Chem. 272(51):32401, 1997) was constructed. This expression vector, which was named pDC409-LZ-TWEAK, comprised the DNA sequence SEQ ID NO: 1 and encoded the polypeptide SEQ ID NO:2. pDC409-LZ-TWEAK conditioned supernatants were produced by transient transfection into CVI-EBNA cells. These supernatants were incubated with magnetic beads coated with polyclonal goat anti-mouse antibody that had previously been incubated with a mouse monoclonal antibody against the leucine zipper. Control beads were produced by mixing the coated beads with supernatants from cells transfected with empty vector.
A monolayer of COS cells grown in a T175 flask was transfected with 15 μg of DNA pools of complexity of 100,000 from a human umbilical vein endothelial cell (HUVEC) cDNA expression library. After 2 days these cells were lifted from the flask, and incubated in 1.5 mls of binding media plus 5% non-fat dried milk for 3 hours at 4° C. on a rotator wheel. […] Slide binding was performed as described more fully below, with the exception that TWEAKR positive slides were detected by incubation with […] followed by incubation with ¹²⁵I-labled M15 anti-leucine zipper.

The target of assay [3] is T3, DR3, expressed on transfected COS cells (UniProt Q93038 25-417, limits assumed).
T3 construct: whole, on cells; also called Apo3; WSL-1
T3 sequence (looked up): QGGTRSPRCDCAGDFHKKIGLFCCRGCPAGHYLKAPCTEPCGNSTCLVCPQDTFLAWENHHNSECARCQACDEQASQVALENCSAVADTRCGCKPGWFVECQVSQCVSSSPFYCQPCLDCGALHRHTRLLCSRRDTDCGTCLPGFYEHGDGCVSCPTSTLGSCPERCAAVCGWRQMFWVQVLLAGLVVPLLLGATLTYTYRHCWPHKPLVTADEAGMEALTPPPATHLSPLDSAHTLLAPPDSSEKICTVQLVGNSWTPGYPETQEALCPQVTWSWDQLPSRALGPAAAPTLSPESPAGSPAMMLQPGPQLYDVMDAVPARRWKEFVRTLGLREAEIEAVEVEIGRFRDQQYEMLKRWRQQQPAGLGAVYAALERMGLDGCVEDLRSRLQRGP
Briefly: slide binding on transfected COS cells, 125I anti-leucine zipper antibody, autoradiography. The protocol: Slides of COS cells were transfected with expression vectors containing TWEAKR, DR3, or vector without insert (control). After two days the cells were incubated with concentrated supernatants from CV-1 cells transfected with a vector encoding the leucine zipper TWEAK extracellular domain fusion protein. One hour later the cells were washed and probed with an ¹²⁵Ilabeled antibody against the leucine-zipper domain. The slides were washed, fixed, and autoradiography was performed using x-ray film. The TWEAKR transfected cells bound significant amounts of TWEAK. […] This experiment confirmed that the TWEAKR polypeptide identified in part A above, rather than DR3, is the major receptor for TWEAK. After discovery of the functional TWEAK receptor, other investigators also reported that DR3 is not the major receptor for TWEAK (Kaptein et al., FEBS Lett., 485(2-3):135, 2000. The TWEAK-TWEAKR binding interaction was further characterized by Scatchard analysis.

B1: leucine zipper TWEAK extracellular domain fusion protein (product of pDC409-LZ-TWEAK) (ligand)
chain: not shown
notes: Used as conditioned supernatant of transfected CV-1/EBNA cells; also called TWEAK-leucine zipper
On to B1, for which the binding result in assay [1] is recorded as “binds”; in assay [2] it was “binds”; in assay [3], “no binding”.
